Reference: US20260137822A1 (ABDERA THERAPEUTICS, published 2026)
Positions count from the first letter of the chain named.

T1: FcγRIIa (H167) (biotinylated, Acro Biosystems) (UniProt P12318 36-218, biotinylated)
T1 sequence (looked up): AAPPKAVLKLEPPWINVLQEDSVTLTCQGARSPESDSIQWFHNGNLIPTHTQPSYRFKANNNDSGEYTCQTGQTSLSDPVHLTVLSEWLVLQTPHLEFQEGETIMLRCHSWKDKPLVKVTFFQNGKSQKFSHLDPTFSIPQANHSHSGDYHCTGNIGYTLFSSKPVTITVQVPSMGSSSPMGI

T2: FcγRIIb/c (biotinylated, Acro Biosystems) (UniProt P31994 46-217, biotinylated)
T2 sequence (looked up): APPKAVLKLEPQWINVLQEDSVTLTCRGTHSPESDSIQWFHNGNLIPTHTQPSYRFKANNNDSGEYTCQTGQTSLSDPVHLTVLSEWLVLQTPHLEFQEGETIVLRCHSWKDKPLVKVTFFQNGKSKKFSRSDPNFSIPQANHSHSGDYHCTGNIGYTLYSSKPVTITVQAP

T3: FcγRIIa (R167) (biotinylated, Acro Biosystems) (UniProt P12318 36-218, biotinylated)
T3 sequence (looked up): T1 sequence (looked up) with H132R

T4: human DLL3 (antigen of Example 30) (human, UniProt Q9NYJ7 27-492, limits assumed)
T4 construct: also called hDLL3
T4 sequence (looked up): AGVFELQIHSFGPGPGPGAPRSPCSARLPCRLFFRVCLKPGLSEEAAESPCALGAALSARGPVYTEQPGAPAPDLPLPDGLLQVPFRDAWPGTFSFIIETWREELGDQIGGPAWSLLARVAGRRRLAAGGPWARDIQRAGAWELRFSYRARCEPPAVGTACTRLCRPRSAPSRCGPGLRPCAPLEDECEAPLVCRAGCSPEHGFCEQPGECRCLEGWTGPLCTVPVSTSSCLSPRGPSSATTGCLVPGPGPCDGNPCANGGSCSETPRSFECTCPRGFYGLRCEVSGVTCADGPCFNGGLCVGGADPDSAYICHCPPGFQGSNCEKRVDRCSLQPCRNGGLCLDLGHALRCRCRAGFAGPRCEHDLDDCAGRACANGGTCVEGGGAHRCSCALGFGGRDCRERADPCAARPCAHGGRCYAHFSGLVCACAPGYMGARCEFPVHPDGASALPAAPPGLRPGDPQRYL

B1: H133 (Fc fusion)
chain (part 1 of 2): QVQLQESGGGSVQAGGSLKLTCAASGYIFNSCGMGWYRQSPGRERELVSRISGDGDTWHKESVKGRFTISQDNVKKTLYLQMNSLKPEDTAVYFCAVCYNLETYWGQGTQVTVSS
chain (part 2 of 2): APEAEGAPSVFLFPPKPKDTLMISRTPEVTCVVVDVSHEDPEVKFNWYVDGVEVHNAKTKPREEQYNSTYRVVSVLTVLHQDWLNGKEYKCKVSNKALPSSIEKTISKAKGQPREPQVYTLPPSREEMTKNQVSLTCLVKGFYPSDIAVEWESNGQPENNYKTTPPVLDSDGSFFLYSKLTVDKSRWQQGNVFSCSVMHEALHNHYTQKSLSLSPG
notes: not shown: hinge; copies: 2 + 2
B2: D134 (Fc fusion)
chain (part 1 of 2): EVQLVESGGGEVQPGGSLRLSCAASGSIFSINAMGWYRQAPGKQRELVAGFTGDTNTIYAESVKGRFTISRDNAKNTVYLQMSSLRAEDTAVYYCAADVQLFSRDYEFYWGQGTLVTVKP
chain (part 2 of 2): B1 chain (part 2 of 2)
notes: as for B1
B3: H137 (Fc fusion)
chain (part 1 of 2): B1 chain (part 1 of 2)
chain (part 2 of 2): B1 chain (part 2 of 2) with H205Q
notes: as for B1
B4: D136 (Fc fusion)
chain (part 1 of 2): B2 chain (part 1 of 2)
chain (part 2 of 2): B1 chain (part 2 of 2) with H80A
notes: as for B1
B5: H135 (Fc fusion)
chain (part 1 of 2): B1 chain (part 1 of 2)
chain (part 2 of 2): B1 chain (part 2 of 2) with H80A
notes: as for B1
B6: D138 (Fc fusion)
chain (part 1 of 2): B2 chain (part 1 of 2)
chain (part 2 of 2): B1 chain (part 2 of 2) with H205Q
notes: as for B1
B7: Anti-FOLR1x2; Anti-DLL3x2; (GGS)3 tetramer (bispecific antibody)
chain (part 1 of 2): QVQLVESGGGLVQPGGSLRLSCAASGFTVSNSVMAWYRQTPGNEREFVAIINSIGITNYADSVKGRFTISRDNSKNTLYLQMNSLRAEDTAVYVCNRNFDRIYWGQGTLVTVSSGGSGGSGGSEVQLVESGGGEVQPGGSLRLSCAASGSIFSINAMGWYRQAPGKQRELVAGFTGDTNTIYAESVKGRFTISRDNAKNTVYLQMSSLRAEDTAVYYCAADVQLFSRDYEFYWGQGTLVTVKP
chain (part 2 of 2): not shown
notes: As m61 with the (GGS)3 linker; also called bispecific tetramer GGSx3; not shown: hinge
B8: bispecific anti-h/mFOLR1/h/mDLL3 (GGS)3 tetramer, p-SCN-Bn-DOTA conjugate (bispecific antibody)
chain (part 1 of 2): B7 chain (part 1 of 2)
chain (part 2 of 2): not shown
modifications: conjugated with p-SCN-Bn-DOTA
notes: Chelator conjugate of m63; not shown: hinge
B9: Anti-FOLR1x2; Anti-DLL3x2; (GGS)4 tetramer (bispecific antibody)
chain (part 1 of 2): QVQLVESGGGLVQPGGSLRLSCAASGFTVSNSVMAWYRQTPGNEREFVAIINSIGITNYADSVKGRFTISRDNSKNTLYLQMNSLRAEDTAVYVCNRNFDRIYWGQGTLVTVSSGGSGGSGGSGGSEVQLVESGGGEVQPGGSLRLSCAASGSIFSINAMGWYRQAPGKQRELVAGFTGDTNTIYAESVKGRFTISRDNAKNTVYLQMSSLRAEDTAVYYCAADVQLFSRDYEFYWGQGTLVTVKP
chain (part 2 of 2): not shown
notes: As m61 with the (GGS)4 linker; also called bispecific tetramer GGSx4; not shown: hinge
B10: Anti-FOLR1x2; Anti-DLL3x2; (GGGGS)3 tetramer (bispecific antibody)
chain (part 1 of 2): QVQLVESGGGLVQPGGSLRLSCAASGFTVSNSVMAWYRQTPGNEREFVAIINSIGITNYADSVKGRFTISRDNSKNTLYLQMNSLRAEDTAVYVCNRNFDRIYWGQGTLVTVSSGGGGSGGGGSGGGGSEVQLVESGGGEVQPGGSLRLSCAASGSIFSINAMGWYRQAPGKQRELVAGFTGDTNTIYAESVKGRFTISRDNAKNTVYLQMSSLRAEDTAVYYCAADVQLFSRDYEFYWGQGTLVTVKP
chain (part 2 of 2): not shown
notes: entry chosen by mutation status; also called bispecific tetramer GGGGSx3; not shown: hinge

Each binder was assayed against FcγRIIIa (V176) (biotinylated, Acro Biosystems) (UniProt P08637 17-208, biotinylated) (assay: BLI, biotinylated FcγR on SA sensor).
FcγRIIIa (V176) (biotinylated, Acro Biosystems), sequence (P08637 17-208 F176V limits assumed): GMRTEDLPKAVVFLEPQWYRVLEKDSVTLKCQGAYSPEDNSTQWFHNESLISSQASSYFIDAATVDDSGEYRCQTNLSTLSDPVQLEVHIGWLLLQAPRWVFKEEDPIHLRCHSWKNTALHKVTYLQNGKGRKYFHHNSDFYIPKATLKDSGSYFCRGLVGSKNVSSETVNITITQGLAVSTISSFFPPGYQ
B1: no binding.
B2: no binding.
B3: no binding.
B4: no binding.
B5: no binding.
B6: no binding.

Each binder was assayed against FcγRIIIa (F176) (biotinylated, Acro Biosystems) (UniProt P08637 17-208, biotinylated) (assay: BLI, biotinylated FcγR on SA sensor).
FcγRIIIa (F176) (biotinylated, Acro Biosystems), sequence (P08637 17-208 limits assumed): as the sequence (P08637 17-208 F176V limits assumed) above, with V160F counted along it
B1: no binding.
B2: no binding.
B3: no binding.
B4: no binding.
B5: no binding.
B6: no binding.

The binders below were run against FcγRI (biotinylated, Acro Biosystems) (UniProt P12314 16-288, biotinylated) (assay: BLI, biotinylated FcγR on SA sensor).
FcγRI (biotinylated, Acro Biosystems), sequence (P12314 16-288 limits assumed): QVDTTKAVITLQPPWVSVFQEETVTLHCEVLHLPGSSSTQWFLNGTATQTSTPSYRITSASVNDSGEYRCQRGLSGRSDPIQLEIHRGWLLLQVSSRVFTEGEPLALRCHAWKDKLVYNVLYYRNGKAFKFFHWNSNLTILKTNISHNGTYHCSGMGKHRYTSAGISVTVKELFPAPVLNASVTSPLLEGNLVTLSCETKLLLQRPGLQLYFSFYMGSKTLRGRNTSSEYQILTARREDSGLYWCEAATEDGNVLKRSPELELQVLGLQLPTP
B2: no binding.
B3: no binding.
B4: no binding.
B5: no binding.

These binders were tested against T1, FcγRIIa (H167) (biotinylated, Acro …) (assay: BLI, biotinylated FcγR on SA sensor).
B1: no binding.
B3: no binding.
B5: no binding.

These binders were tested against T5, FOLR1 on cells (OVCAR3, OV-90) (UniProt P15328 25-234) (assay: flow cytometry on FOLR1 expressing OV-90 cells, Geomeans RL1-H against Conc (nM); linker not printed on the sheet, taken as the (GGS)3 parent of the conjugate [bottom panel]).
T5 construct: whole, on cells; also called FOLR1-positive OVCAR3 cells; FOLR1 expressing OV-90 cells
T5 sequence (P15328 25-234): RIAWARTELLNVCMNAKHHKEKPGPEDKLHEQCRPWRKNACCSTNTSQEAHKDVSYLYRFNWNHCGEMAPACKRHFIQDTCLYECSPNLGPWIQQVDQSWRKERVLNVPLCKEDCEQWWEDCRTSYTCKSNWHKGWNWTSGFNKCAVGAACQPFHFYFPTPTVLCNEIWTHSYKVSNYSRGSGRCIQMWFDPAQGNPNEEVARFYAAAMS
In the case of B7, the “EC50 (read off the curve)” value is reported as about 0.003 µM.

These binders were tested against T5, FOLR1 on cells (OVCAR3, OV-90) (assay: flow cytometry on FOLR1 expressing OV-90 cells, Geomeans RL1-H against Conc (nM) [bottom panel]).
With B8 the “EC50 (read off the curve)” value was about 0.003 µM.

The binders below were run against T2, FcγRIIb/c (biotinylated, Acro …) (assay: BLI (Octet), biotinylated FcγR on SA sensor, steady state analysis).
B2 gave a Kd of 1.1 µM.
Binder B4 has a Kd of 2.2 µM.
B6 showed a Kd of 0.77 µM.

Each binder was assayed against T3, FcγRIIa (R167) (biotinylated, Acro …) in the same assay as above.
Binder B1 has a Kd of 2.3 µM.
In the case of B2, the Kd is reported as 0.46 µM.
B3 showed a Kd of 1.2 µM.
Binder B4 has a Kd of 0.57 µM.
With B5 the Kd was 1.2 µM.
Binder B6 has a Kd of 0.52 µM.

These binders were tested against T5, FOLR1 on cells (OVCAR3, OV-90) (assay: binding to FOLR1-positive OVCAR3 cells).
B9: binds.
B10: binds.

What follows are binders tested against biotinylated hFcRn (Sino Biological, Cat #: CT071-H27H-B) (human, UniProt P55899 24-297; P61769 21-119, biotinylated) (assay: BLI (Octet), biotinylated hFcRn on SA sensor, pH 6.0, 2:1 heterogeneous ligand model).
B1 gave a Kd of 0.0021 µM.
Work on B2 yielded a Kd of 0.0019 µM.

The binders below were run against T6, murine FOLR1 (antigen of the Octet assay) (murine, UniProt P35846 25-232, limits assumed) (assay: BLI (Octet), tetramer captured on AHC sensor, antigen as analyte).
T6 construct: also called mFOLR1
T6 sequence (P35846 25-232 limits assumed): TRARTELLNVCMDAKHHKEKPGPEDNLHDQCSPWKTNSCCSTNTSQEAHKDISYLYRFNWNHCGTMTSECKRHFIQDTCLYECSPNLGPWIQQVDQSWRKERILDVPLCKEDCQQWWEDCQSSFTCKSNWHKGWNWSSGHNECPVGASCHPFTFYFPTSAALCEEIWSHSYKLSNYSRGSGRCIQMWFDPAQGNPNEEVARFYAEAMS
B7: binds.
B9: binds.
B10: binds.

What follows are binders tested against T4, human DLL3 (antigen of Example 30) in the same assay as above.
B7: binds.
B9: binds.
B10: binds.

Each binder was assayed against T7, human FOLR1 (antigen of the Octet assay) (human, UniProt P15328 25-234, limits assumed) in the same assay as above.
T7 construct: also called hFOLR1
T7 sequence (P15328 25-234 limits assumed): as the sequence (P15328 25-234) above
B9: binds.
B10: binds.
